Test results reported in patent US20160222458A1 (AGENCY FOR SCIENCE TECHNOLOGY AND RESEARCH, published 2016).

Molecular target: T1, Aurora kinase A (AURKA) (UniProt O14965 1-403)
T1 construct: also called AURKA-A; STK6
T1 sequence (looked up): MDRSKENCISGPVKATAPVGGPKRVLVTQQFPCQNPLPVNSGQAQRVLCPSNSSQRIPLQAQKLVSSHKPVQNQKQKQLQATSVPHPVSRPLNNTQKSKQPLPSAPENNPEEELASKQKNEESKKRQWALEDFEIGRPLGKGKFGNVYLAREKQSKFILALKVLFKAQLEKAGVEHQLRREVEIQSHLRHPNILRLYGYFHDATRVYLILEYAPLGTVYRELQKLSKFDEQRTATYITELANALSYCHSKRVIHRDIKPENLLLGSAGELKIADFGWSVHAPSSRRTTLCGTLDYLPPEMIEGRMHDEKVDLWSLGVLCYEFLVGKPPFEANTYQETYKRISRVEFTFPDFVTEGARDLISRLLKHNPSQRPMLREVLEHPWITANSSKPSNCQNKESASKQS
Assay: co-immunoprecipitation from MDA-MB-436 lysate with anti-PRR11 antibody on CNBr sepharose, Western blot
Excerpt: Pelleted cells were lysed using lysis buffer (commercial Bio-Rad) and estimated proteins (Bio-Rad protein assay) and loaded equal amount of protein and separated by SDS-PAGE [28-30]. After transfer, the membranes were probed with commercial rabbit polyclonal antibodies of Actin, C6orf173, AURKA, MELK and PRR11 (Cell sciences, Sigma Aldrich). Commercial mouse monoclonal antibody available for BRRN1 was obtained from Cell Signalling. Commercial rabbit polyclonal antibody of E2F1 obtained from Thermo Scientific. B-Actin (cell signalling) was used as internal control to relatively compare the expression levels of 6-TAGs genes. Secondary antibodies (anti-rabbit and anti-mouse IgG horseradish peroxidase-conjugated) were purchased from GE Healthcare Bio-Sciences AB. Proteins were visualized using an enhanced chemiluminescence (ECL) reagent kit (GE Healthcare Bio-Sciences AB). Densitometry analysis of Western Blot images was done using ImageJ open source software.
For the immunoprecipiation 5 ug of the antibodies (rabbit anti-PRR11 and mouse anti-BRRN1) were coupled to the CN-Br sepharose 4 Fast Flow according manufacturer protocol (GE Healthcare Bio-Sciences AB) and such supports were used to capture the corresponding proteins from the NP40 cell lysates (usually 1×10^7 MDA-MB-436 cells were used for one probe). […]

B1: Proline rich 11 (PRR11/FLJ11029) (other, UniProt Q96HE9 1-360, looked up)
chain: MPKFKQRRRKLKAKAERLFKKKEASHFQSKLITPPPPPPSPERVGISSIDISQSRSWLTSSWNFNFPNIRDAIKLWTNRVWSIYSWCQNCITQSLEVLKDTIFPSRICHRELYSVKQQFCILESKLCKLQEALKTISESSSCPSCGQTCHMSGKLTNVPACVLITPGDSKAVLPPTLPQPASHFPPPPPPPPLPPPPPPLAPVLLRKPSLAKALQAGPLKKDGPMQITVKDLLTVKLKKTQSLDEKRKLIPSPKARNPLVTVSDLQHVTLKPNSKVLSTRVTNVLITPGKSQMDLRKLLRKVDVERSPGGTPLTNKENMETGTGLTPVMTQALRRKFQLAHPRSPTPTLPLSTSSFDEQN
notes: also called endogenous PRR11
  binding result: no binding
